Assays:
[1] = biological target: C1q complement component (UniProt P02745); assay: BLI
[2] = biological target: FcgR3a(F), biotinylated (UniProt P08637); assay: SPR
[3] = biological target: FcgR3a(V), biotinylated (UniProt P08637); assay: SPR
[4] = biological target: FcgR3b Biotinylated (UniProt O75015); assay: SPR
Sequence of UniProt O75015 (O75015 17-200): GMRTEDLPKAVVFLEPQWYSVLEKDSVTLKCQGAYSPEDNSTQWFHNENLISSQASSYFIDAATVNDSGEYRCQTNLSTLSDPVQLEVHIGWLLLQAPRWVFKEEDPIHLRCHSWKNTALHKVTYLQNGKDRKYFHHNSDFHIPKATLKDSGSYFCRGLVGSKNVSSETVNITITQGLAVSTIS

Sequence of UniProt P02745 (P02745 23-245, chain 1 of 3): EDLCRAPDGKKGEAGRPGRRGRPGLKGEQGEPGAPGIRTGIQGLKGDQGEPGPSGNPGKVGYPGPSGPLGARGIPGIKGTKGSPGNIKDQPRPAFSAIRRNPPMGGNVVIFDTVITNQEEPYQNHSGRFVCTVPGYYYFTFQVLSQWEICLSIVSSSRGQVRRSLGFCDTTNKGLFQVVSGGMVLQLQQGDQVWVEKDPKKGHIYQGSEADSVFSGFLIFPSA
Sequence of UniProt P02745 (P02746 28-253, chain 2 of 3, further chain): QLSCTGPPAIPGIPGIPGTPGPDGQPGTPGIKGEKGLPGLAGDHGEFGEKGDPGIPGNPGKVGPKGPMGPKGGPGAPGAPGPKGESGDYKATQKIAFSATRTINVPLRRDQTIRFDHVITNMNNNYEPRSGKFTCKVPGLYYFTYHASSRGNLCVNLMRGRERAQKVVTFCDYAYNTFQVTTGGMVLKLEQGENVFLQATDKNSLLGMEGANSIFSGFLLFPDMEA
Sequence of UniProt P02745 (P02747 29-245, chain 3 of 3, further chain): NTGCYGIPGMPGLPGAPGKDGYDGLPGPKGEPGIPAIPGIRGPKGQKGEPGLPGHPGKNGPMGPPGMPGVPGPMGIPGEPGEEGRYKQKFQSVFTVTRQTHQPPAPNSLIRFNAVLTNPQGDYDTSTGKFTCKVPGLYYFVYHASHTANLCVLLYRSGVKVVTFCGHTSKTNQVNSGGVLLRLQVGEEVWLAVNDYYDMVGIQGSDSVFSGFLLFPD

Substance | Kd [1] [nM] | Kd [2] [nM] | Kd [3] [nM] | Kd [4] [nM]
CIS43-LS (IgG1m3-LS) | 1.5 | 2780 | 590 | 5010
CIS43-LS-GAALIE (IgG1m3-LS-GAALIE) |  |  |  | 1020
CIS43 wild-type mAb (IgG1m3) | 1.8 | 2510 | 590 | 5240
CIS43-LS-G236A (IgG1m3-LS-GA) |  | 4620 | 1270 | 17400
CIS43-LS-AFUC (afucosylated CIS43-LS) | 1.7 | 160 |  | 330
